Measurements reported in article PMC2528193.
Several values for one entry are separate records, joined by “and”; a condition that tells them apart may be missing. Equal entries are not always repeated.

Tests used:
[1] = tested on: PfHUp (processed PfHU, bacterial histone-like protein) (Plasmodium falciparum); experiment: EMSA
[2] = target: predicted processed PfHU (P. falciparum bacterial histone-like protein), recombinant (P. falciparum); experiment: SDS-resistant dimer on SDS-PAGE with anti-His Western blot
[3] = target: predicted processed PfHU (P. falciparum bacterial histone-like protein), recombinant (P. falciparum); experiment: cross-linking

Row | Substance | Kd [1] | stoichiometry N [2] | stoichiometry N [3]
1 | 30 bp probe | 62.7 nM |  | 
2 | predicted processed PfHU (P. falciparum bacterial histone-like protein), recombinant (domain or fragment) |  | 2 | 2 and 4
